# Patent US20250206813A1 (NVH MEDICINAL, published 2025)
# T1: PCPE-1 (Procollagen C-proteinase enhancer-1) glycoprotein, human (human, UniProt Q15113 26-449)
# T1 construct: mature; Secreted recombinant protein; also called purified human PCPE-1
# T1 sequence (looked up): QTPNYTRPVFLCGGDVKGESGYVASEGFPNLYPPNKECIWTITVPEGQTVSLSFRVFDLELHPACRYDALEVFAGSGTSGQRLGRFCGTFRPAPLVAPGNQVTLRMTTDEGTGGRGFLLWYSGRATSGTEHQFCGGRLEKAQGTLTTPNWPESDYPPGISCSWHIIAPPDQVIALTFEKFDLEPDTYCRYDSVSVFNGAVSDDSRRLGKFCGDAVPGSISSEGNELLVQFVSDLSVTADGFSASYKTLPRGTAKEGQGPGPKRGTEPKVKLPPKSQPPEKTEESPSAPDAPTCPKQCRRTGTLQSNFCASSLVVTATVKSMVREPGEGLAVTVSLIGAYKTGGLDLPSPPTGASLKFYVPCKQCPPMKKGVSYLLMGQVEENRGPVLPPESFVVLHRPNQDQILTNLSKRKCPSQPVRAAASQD
# How the values were obtained:
# [1] = biological target: T1, PCPE-1 (Procollagen C-proteinase …); assay: SPR competition: PCPE-1 (5 nM) co-injected with the mix on immobilized Mini III; mix of VHH-I5 and VHH-H4, 5 nM PCPE-1
# Description: (§1) Surface plasmon resonance (SPR) experiments were carried out on a Biacore T200 (Cytiva). The ligand proteins, in solution in 10 mM HEPES pH 7.4 buffer for PCPE-1 or 10 mM sodium acetate pH 4.5 buffer for mini-procollagen III and streptavidin, are immobilized on CM5 chips by amine coupling. Analytes are diluted in running buffer (10 mM HEPES pH 7.4, 0.15 M NaCl, 5 mM CaCl₂), 0.05% P20) and injected at a flow rate of 30 or 50 μL/min. Competition, epitope binning and kinetics experiments were all carried out at 25° C. Regeneration was achieved by successive injection of 2 M guanidine chloride and 0.5 M EDTA for 30 sec. Sensorgrams were analyzed with Biacore T200 Evaluation v3.2.1 (Cytiva), using the most suitable models. IC50 was determined by non-linear regression using GraphPad Prism (v8.2.1).
# What is more, their antagonistic effects are additive, and co-injection of a mixture of VHH-I5 and VHH-H4 with PCPE-1 virtually eliminates its interaction with Mini III.
# [2] = biological target: T1, PCPE-1 (Procollagen C-proteinase …); assay: SPR competition: PCPE-1 (5 nM) co-injected with D1 (0-200 nM) on immobilized Mini III
# Description: as §1
# Similarly, the addition of diab-D1 completely blocks the stimulation of CPIII-Long cleavage by PCPE-1 (FIG. 4C).
# [3] = biological target: T1, PCPE-1 (Procollagen C-proteinase …); assay: SPR, increasing concentrations of D1 (0-250 nM) on immobilized PCPE-1, Langmuir model
# Description: as §1
# (§2) 21, produced in bacteria. The interaction of diab-D1 with PCPE-1 was assessed by SPR, by injecting increasing concentrations of diab-D1 onto immobilized PCPE-1.
# [4] = biological target: T1, PCPE-1 (Procollagen C-proteinase …); assay: SPR, D1 (0-250 nM) injected over immobilized PCPE-1, 1:1 binding model (Langmuir)
# Description: as §1, §2
# [5] = biological target: T1, PCPE-1 (Procollagen C-proteinase …); assay: SPR competition: PCPE-1 (5 nM) co-injected with D1 (0-200 nM) over immobilized mini-procollagen III; blocked ligand: Mini III
# Description: FIG. 4B: Inhibition of PCPE-1/mini-procollagen III interaction in the presence of D1: the interaction of PCPE-1 (5 nM) with immobilized mini-procollagen III is measured and compared with the interaction obtained when PCPE-1 (5 nM) is co-injected with increasing amounts (0-200 nM) of D1. The % residual PCPE-1 uptake is plotted as a function of D1 concentration.
# as §1
Binder,IC50 [1] [nM],IC50 [2] [nM],Kd [3] [nM],koff [4] [s⁻¹],kon [4] [M⁻¹ s⁻¹],IC50 (read off the curve) [5] [nM]
"mix of VHH-I5 and VHH-H4 (other, Not one molecule: two separate nanobodies added together; the two chains are not linked; also called mixture of VHH-I5 and VHH-H4; VHH-I5 and VHH-H4 co-injected; not shown: C-terminal 6-His tag) VHH 1: MAQVQLVESGGGLVQPGGFLRLLCTASGNIFSSNTMGWYRRAPGKQREWVASISKGGSTNYADSVKDRFTISRSITKNTVYLQMVNLKPEDTAVYYCNPVPDSDNYASGQGTQVTVSS VHH 2: MAEVQLQASGGGFVQPGGSLRLSCAASGFTSEISNMGWFRQAPGKEREFVSAISGTHTTQTYYADSVKGRFTISRDNSKNTVYLQMNSLRAEDTATYYCAAEQDMSDLWLGSYWGQGTQVTVSS",~20,–,–,–,–,–
"bivalent nanobody VHH-H4-GS8-VHH-I5 (D1) (other, Single polypeptide of two VHHs (H4, linker, I5), biparatopic for PCPE-1 (CUB1 and CUB2); produced in bacteria; also called diab-D1; diabody D1; not shown: C-terminal tag of the pET29b(+) construct (6-His for the synthetic nanobodies)) MAEVQLQASGGGFVQPGGSLRLSCAASGFTSEISNMGWFRQAPGKEREFVSAISGTHTTQTYYADSVKGRFTISRDNSKNTVYLQMNSLRAEDTATYYCAAEQDMSDLWLGSYWGQGTQVTVSSAAAGSGSGSGSGSGSGGSQVQLVESGGGLVQPGGFLRLLCTASGNIFSSNTMGWYRRAPGKQREWVASISKGGSTNYADSVKDRFTISRSITKNTVYLQMVNLKPEDTAVYYCNPVPDSDNYASGQGTQVTVSS",–,~3.5,0.32,0.000515,1.6e+06,~3
